Test results taken from patent US20240124575A1 (SIMCERE ZAIMING PHARMACEUTICAL, published 2024).

Experiments:
[1] = biological target: T1, human CD33-His (extracellular domain Asp 18-His 259) (human, UniProt P20138 18-259); experiment: competitive ELISA vs coated S006-NB146-39 2ug/mL; soluble 25ug/ml
T1 construct: range 18-259; bought protein; also called hCD33-his; human CD33 protein; not shown: His tag
Description: (§1) VHH antibodies and control antibodies with known epitopes were subjected to epitope classification with competitive ELISA. ELISA plates were coated with 2 μg/mL antibodies according to the method in Example 5.1; the human CD33-his protein was subjected to a gradient dilution from 30 μg/mL, and EC80 values (Tables 26-27) were calculated. ELISA plates were coated with 2 μg/mL antibodies; after 25 µg/mL of antibodies to be tested were added, a human CD33-his protein having an EC80 concentration corresponding to each of the antibodies to be tested was then added for incubation for 2 h. The plates were washed 5 times with PBS, then HRP-labeled anti-His antibodies (purchased from GenScript, Cat. No. A00612) were added for incubation for 1 h, and the plates were washed 5 times. A TMB substrate was added at 50 μL/well and incubated at room temperature for 10 min, then a stop solution (1.0 M HCl) was added at 50 μL/well. OD_{450 nm} values were read using an ELISA plate reader (Insight, purchased from PerkinElmer), and the competition rate between the antibodies was calculated according to the OD_{450 nm} values using a formula. The results are shown in FIGS. 12A-12B, the higher the value of the competition rate, the closer the epitopes to which two antibodies bind.

[2] = biological target: T2, human CD33 on U937 cells (endogenous) (human, UniProt P20138 18-364); experiment: FACS, U937 cells
T2 construct: whole, on cells
T2 sequence (P20138 18-364): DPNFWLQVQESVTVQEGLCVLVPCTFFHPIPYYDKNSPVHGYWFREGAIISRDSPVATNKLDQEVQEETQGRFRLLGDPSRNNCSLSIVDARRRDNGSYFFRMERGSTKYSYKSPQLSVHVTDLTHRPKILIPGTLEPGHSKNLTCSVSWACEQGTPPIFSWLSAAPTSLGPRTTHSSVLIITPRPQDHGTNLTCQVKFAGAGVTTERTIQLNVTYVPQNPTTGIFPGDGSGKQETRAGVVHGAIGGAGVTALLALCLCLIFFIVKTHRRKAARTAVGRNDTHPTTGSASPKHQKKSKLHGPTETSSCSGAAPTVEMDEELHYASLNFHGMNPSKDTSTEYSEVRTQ
Description: The desired cells were expanded to a logarithmic growth phase in a T-75 cell culture flask. For adherent cells CHO-K1, the culture medium was removed by pipetting, and the cells were washed twice with a PBS buffer, digested with trypsin, and washed twice with a PBS buffer again after the digestion was stopped. For suspension cells U937, the medium supernatant was discarded by direct centrifugation, and the cell pellet was washed twice with PBS, and then incubated with a buffer containing human Fc Block (purchased from BD, Cat. No. 564220) for 15 min. After the cells obtained in the last step were subjected to cell counting, the cell pellet was resuspended to 2×10⁶ cells/mL with a blocking solution [PBS+2% (w/w) BSA] and added to a 96-well FACS reaction plate at 50 μL/well. The VHH-Fc antibody (a sample to be tested) was added at 50 μL/well, and the plate was incubated on ice for 2 h. […] After the plate was centrifuged and washed 5 times with a PBS buffer, the results were assayed and analyzed by FACS (FACS Canto™, purchased from BD Biosciences), so as to obtain the mean fluorescence intensity (MFI) of cells. Then, analysis was performed by software (GraphPad Prism8), data were fitted, and EC50 values were calculated.

[3] = biological target: T1, human CD33-His (extracellular domain …); experiment: competitive ELISA vs coated S006-NB147-225 2ug/mL; soluble 25ug/ml
Description: as §1

[4] = biological target: T3, human CD33-C2-his (human, UniProt P20138 136-260); experiment: ELISA on coated human CD33-C2-his
T3 construct: expressed in HEK293E; also called hCD33-C2-his; human CD33 protein C2-domain; not shown: His tag
T3 sequence (P20138 other isoform, or with tags, fused parts or gaps limits assumed): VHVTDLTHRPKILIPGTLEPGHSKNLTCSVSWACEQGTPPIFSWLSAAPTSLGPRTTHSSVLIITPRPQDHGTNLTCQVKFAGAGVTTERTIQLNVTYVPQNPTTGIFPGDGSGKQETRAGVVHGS
From the text: Plates were coated with human CD33-V-his (membrane distal end) and human CD33-C2-his (membrane proximal end), respectively, according to the ELISA method in Example 8. The VHH humanized antibodies were classified based on the membrane distal end and the membrane proximal end, as shown in FIGS. 20A-20J and Table 44, which allowed the classification of the VHH humanized antibodies into the following classes: […]

[5] = biological target: T1, human CD33-His (extracellular domain …); experiment: competitive ELISA vs coated S006-NB146-46 2ug/mL; soluble 25ug/ml
Description: as §1

[6] = biological target: T1, human CD33-His (extracellular domain …); experiment: competitive ELISA vs coated S006-NB146-60 2ug/mL; soluble 25ug/ml
Description: as §1

[7] = biological target: T4, human CD33-his protein (human, UniProt P20138 18-259); experiment: SPR (Biacore), antibody captured on Protein A chip, human CD33-his analyte
T4 construct: range 18-259; bought protein; also called hCD33-his; recombinant human CD33-his; not shown: His tag
T4 sequence (P20138 18-259 limits assumed): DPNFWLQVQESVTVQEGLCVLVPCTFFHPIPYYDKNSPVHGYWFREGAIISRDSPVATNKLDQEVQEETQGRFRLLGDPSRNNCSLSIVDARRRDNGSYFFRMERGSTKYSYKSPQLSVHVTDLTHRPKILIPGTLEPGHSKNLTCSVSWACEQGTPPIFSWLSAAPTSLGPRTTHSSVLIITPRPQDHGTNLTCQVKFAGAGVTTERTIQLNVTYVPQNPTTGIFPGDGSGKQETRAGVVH
Description: The sample and running buffer was HBS-EP+ (10 mM HEPES, 150 mM NaCl, 3 mM EDTA, 0.05% surfactant P20) (GE Healthcare; BR-1006-69). The flow cell was set at 25° C. The sample block was set at 16° C. Both were pretreated with the running buffer. In each cycle, first, the antibody to be tested was captured using the Protein A chip, and then a single concentration of CD33 antigen protein was injected. The association and dissociation processes of the antibody with the antigen protein were recorded, and finally, the chip was regenerated using Glycine pH 1.5 (GE Healthcare; BR-1003-54). The association was determined by injecting different concentrations of recombinant human CD33-his in the solution and maintaining for 240 s, wherein the flow rate was 30 μL/min, and the protein was diluted in a 1:1 dilution ratio from 200 nM to obtain 5 concentrations in total. The dissociation phase was monitored for up to 600 s and triggered by switching from the sample solution to the running buffer. The surface was regenerated by washing with 10 mM glycine solution (pH 1.5) at a flow rate of 30 μL/min for 30 s. The difference in bulk refractive index was corrected by subtracting the responses obtained from the […]. Blank injections were also subtracted (=double reference). To calculate the apparent KD and other kinetic parameters, the Langmuir 1:1 model was used.

T1 sequence (P20138 18-259 limits assumed): as above

Binder	inhibition rate [1]	EC50 [2]	Max MFI [2]	inhibition rate [3]	EC50 (read off the curve) [4]	inhibition rate [5]	inhibition rate [6]	Kd [7]	koff [7]	kon [7]
C33B904 hIgG1 (antibody, V domains shown, intact human IgG1; variable regions from US20190382481A1; also called C33B3904; C331B904) VH: EVQLVESGGGLVQPGRSLRLSCAASGFTFDDYAMHWVRQAPGKGLEWVSGIGWSGGSIVYADSVKGRFTISRDNAKNSLYLQMNSLRAEDTALYYCAKDSPYGDFFDYWGQGTLVTVSS VL: DIVMTQSPDSLAVSLGERATINCKSSQTVFYSSNNKNYLAWYQQKPGQPPKLLISWASTRKSGVPDRFSGSGSGTDFTLTVSSLQAEDVAVYYCQHYYSTPYTFGQGTKLEIKR	85%	12600 pM	682 MFI	96%	~200 pM	92%	8%			
C33B904 (antibody, human IgG1, kappa, V domains shown, control antibody, intact human IgG1 form; variable regions from US20190382481A1; also called C33B904 hIgG1; C331B904) VH: EVQLVESGGGLVQPGRSLRLSCAASGFTFDDYAMHWVRQAPGKGLEWVSGIGWSGGSIVYADSVKGRFTISRDNAKNSLYLQMNSLRAEDTALYYCAKDSPYGDFFDYWGQGTLVTVSS VL: DIVMTQSPDSLAVSLGERATINCKSSQTVFYSSNNKNYLAWYQQKPGQPPKLLISWASTRKSGVPDRFSGSGSGTDFTLTVSSLQAEDVAVYYCQHYYSTPYTFGQGTKLEIKR								79 pM	6.54e-05 s⁻¹	828000 M⁻¹ s⁻¹
